Test results published in article PMC12316933.

Target: KS17 N2 NA (recombinant N2 neuraminidase head of H3N2 A/Kansas/14/2017) (Influenza A virus H3N2 A/Kansas/14/2017)
Test: cryo-EM structure

KS17 N2 NA (recombinant N2 neuraminidase head of H3N2 A/Kansas/14/2017) (enzyme)
stoichiometry N: 4
